According to patent US20160279250, “METHODS FOR STRUCTURAL DETERMINATION OF SELENIUM DERIVATIZED NUCLEIC ACID COMPLEXES” (SeNA Research ,Inc., published 2016):

Molecular target: RNase H (D132N, inactive mutant) (Bacillus halodurans, UniProt Q9KEI9 Q9KEI9:59-196, D132N)
Experiment: structure; PDB 3TWH, 1.80 A; 5 mM MgCl2, MES pH 6.5, PEG 20000; substrate complex
Details: tags: expressed in BL21(DE3) pLysE, 5 bp duplex with one-base overhang at both ends
Method: By using the sitting-drop vapor diffusion method at 25° C., the crystals were readily obtained from a mixture of the crystallization screen [Buffer: 0.1 M MES, pH 6.5; precipitant: 12% (w/v), PEG 20000].
We have synthesized Se-modified DNAs to investigate the DNA/RNA/RNase H complex. […] The complex of RNase H/RNA/Se-DNA (5′-UCGACA-3′/5′-AT-^SeG-TC-^SeGp-3′) was crystallized in a buffer containing 0.1 M MES (pH 6.5) and precipitant (12% w/v, PEG 20000). The crystals were also grown using the sitting drop vapor diffusion method. The crystals appeared within a week and reached their maximum size within a month. Two crystals were used to collect the MAD/SAD data sets. […] After the SAD or MAD dataset is collected from a single crystal, the selenium atoms can be located by direct methods and the phase can be determined similarly to the well-established protein strategy (Elkayam et al., Cell, 150:100-110 (2012); Ferre-D'Amare et al., Nature, 395:567-574 (1998); Hendrickson, Science, 254:51-58 (1991); Hendrickson, Trends Biochem. Sci., 25:637-643 (2000); Schirle and MacRae, Science, 336:1037-1040 (2012); Yang et al., Science 249:1398-1405 (1990)).
The Se-complex structure was finally determined (3TWH; 1.80 Å resolution; FIG. 1) via the selenium anomalous signal and MAD phasing. […] Moreover, the Se-complex structure has been determined by both MAD phasing and molecular replacement. […]

B1: Se-DNA/RNA duplex (DNA-Se, double Se) (DNA:RNA)
DNA: ATGTCG
RNA: UCGACA
modifications: 6-Se-dG at DNA positions 3 and 6; DNA 3'-phosphate
binding result: binds
